What was measured:
[1] = biological target: T1, cynomolgus monkey CD3 antigen construct cynoCD3εAA 1-27.Fc (cynomolgus monkey; human, UniProt Q95LI5 22-48); assay: BLI (Octet QKe), antigen-Fc captured on AHC sensor, ITAB2009 in solution
T1 construct: range 1-27
T1 chain (looked up): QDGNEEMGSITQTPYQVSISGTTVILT
Protocol: (§1) The human CD3 antigen construct (CD3εAA 1-27.Fc) and the cynomolgus monkey CD3 antigen construct (cynoCD3εAA 1-27.Fc) each consists of a peptide of amino acid residues 1-27 of CD3ε connected to a human IgG Fc. The expression of the antigen constructs is described in U.S. Pat. No. 8,846,042. The CD3 or CD19 antigen constructs (Cynomolgus/Rhesus CD19 Protein (Fc Tag), Sino Biological. Inc.; Recombinant Human CD19 Fc Chimera, R&D Systems. Inc.) were diluted to 0.02 mg/mL with dilution buffer (PBS), and then immobilized on an anti-Human Fc capture (AHC) biosensor. […] The control wells containing only PBS were also set up. The detection results were analyzed using ForteBio Data Analysis software.

[2] = biological target: T2, Cynomolgus/Rhesus CD19 Protein (Fc Tag) (Sino Biological) (cynomolgus monkey / rhesus, UniProt F7F486 20-292 (rhesus entry)); assay: as above
T2 construct: Bought reagent; also called cynoCD19.Fc
T2 sequence: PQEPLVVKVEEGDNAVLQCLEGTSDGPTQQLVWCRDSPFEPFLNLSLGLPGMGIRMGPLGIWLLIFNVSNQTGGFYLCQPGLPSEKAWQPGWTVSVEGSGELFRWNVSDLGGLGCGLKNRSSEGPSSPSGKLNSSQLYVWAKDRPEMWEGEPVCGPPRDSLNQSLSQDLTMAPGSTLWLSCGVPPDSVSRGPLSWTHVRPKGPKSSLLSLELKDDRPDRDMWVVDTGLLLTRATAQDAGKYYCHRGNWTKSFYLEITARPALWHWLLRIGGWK
Protocol: as §1

[3] = biological target: T3, Recombinant Human CD19 Fc Chimera (R&D Systems) (human, UniProt P15391 20-291); assay: as above
T3 construct: Bought reagent; also called huCD19.Fc; not shown: Fc of the bought chimera
T3 sequence (looked up): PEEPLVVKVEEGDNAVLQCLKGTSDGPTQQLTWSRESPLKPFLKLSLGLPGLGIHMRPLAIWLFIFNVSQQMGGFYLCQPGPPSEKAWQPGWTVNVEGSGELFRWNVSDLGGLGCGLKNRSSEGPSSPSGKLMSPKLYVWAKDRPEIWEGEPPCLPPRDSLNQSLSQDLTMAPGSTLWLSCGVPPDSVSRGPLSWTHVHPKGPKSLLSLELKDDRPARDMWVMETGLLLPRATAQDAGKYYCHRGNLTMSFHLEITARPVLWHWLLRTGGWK
Protocol: as §1

[4] = biological target: T4, cynomolgus monkey CD3 on cynomolgus monkey T lymphocytes (cynoPBMC) (cynomolgus monkey, UniProt Q95LI5 22-198); assay: flow cytometry, binding rate on T cells in cynomolgus monkey PBMC, detection with anti-human Ig κ light chain
T4 construct: whole, on cells; also called cynoCD3; cell surface antigen CD3 on cynomolgus monkey T cells
Protocol: (§2) CynoPBMC Preparation: Whole blood samples from cynomolgus monkeys were diluted with PBS buffer (Gibco), centrifuged by density gradient centrifugation using 90% Ficoll-Paque isolation buffer (obtained by diluting Ficoll-Paque with PBS, Ficoll-Paque, GE Healthcare) to obtain PBMC, washed twice with PBS, then centrifuged at room temperature, 1000 g for 10 min. Cells were collected, and resuspended in RPM′ 1640 Medium (Gibco) containing 10% FBS.
(§3) About 3.6×10⁵ PBMCs (huPBMC or cynoPBMC) per well were added to a 96-well plate. […] Cells were washed with FACS buffer once, resuspended in 50 μL FACS buffer, supplemented with Antibody PE Mouse Anti-Human CD20 (BD Pharmingen™), FITC Mouse Anti-Human CD4 (BD Pharmingen™), and APC Mouse anti-Human Ig, κ Light Chain (BD Pharmingen™), and incubated at room temperature for 45 min. 200 μL FACS buffer was finally added, and the samples were analyzed using ACCURI® C6 Cytometer (BD Biosciences).
(§4) Binding rate was plotted against the y-axis, and drug concentration was plotted against the x-axis. The curve was fitted using a 4-parameter logistic model to determine EC50.

[5] = biological target: T5, human CD19 on cells (human B lymphocytes; Raji, Daudi and Reh tumor cells) (human, UniProt P15391 20-556); assay: cell-based or functional assay
T5 sequence (looked up): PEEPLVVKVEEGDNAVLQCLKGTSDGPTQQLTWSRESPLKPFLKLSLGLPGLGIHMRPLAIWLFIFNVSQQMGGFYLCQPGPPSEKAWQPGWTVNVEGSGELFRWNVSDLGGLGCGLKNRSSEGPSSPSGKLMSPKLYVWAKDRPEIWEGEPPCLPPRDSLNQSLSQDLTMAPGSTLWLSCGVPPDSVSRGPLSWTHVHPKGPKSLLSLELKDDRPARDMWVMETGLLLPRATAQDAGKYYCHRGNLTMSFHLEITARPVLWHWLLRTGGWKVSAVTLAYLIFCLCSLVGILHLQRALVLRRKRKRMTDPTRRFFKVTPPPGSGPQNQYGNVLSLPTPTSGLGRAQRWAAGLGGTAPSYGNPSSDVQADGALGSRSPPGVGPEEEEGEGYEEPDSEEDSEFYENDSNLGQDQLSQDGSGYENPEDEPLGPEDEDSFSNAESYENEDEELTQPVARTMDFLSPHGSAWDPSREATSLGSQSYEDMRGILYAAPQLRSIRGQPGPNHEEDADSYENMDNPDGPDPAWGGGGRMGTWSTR

[6] = biological target: T6, human CD3 on human T lymphocytes (huPBMC) (human, UniProt P07766 23-207); assay: flow cytometry, binding rate on T cells in human PBMC, detection with anti-human Ig κ light chain
T6 construct: whole, on cells; also called huCD3; cell surface antigen CD3 on human T cells
T6 sequence (P07766 23-207): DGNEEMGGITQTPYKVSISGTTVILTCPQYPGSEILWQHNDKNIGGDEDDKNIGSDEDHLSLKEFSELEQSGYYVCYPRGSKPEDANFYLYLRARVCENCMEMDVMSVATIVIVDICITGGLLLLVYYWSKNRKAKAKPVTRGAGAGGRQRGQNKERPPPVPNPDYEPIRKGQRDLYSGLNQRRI
Protocol: as §3, §4

[7] = biological target: T7, cynomolgus monkey CD19 on cynomolgus monkey B lymphocytes (cynoPBMC) (cynomolgus monkey, UniProt A0A2K5W8L9 20-557); assay: flow cytometry, binding rate on B cells in cynomolgus monkey PBMC, detection with anti-human Ig κ light chain
T7 construct: whole, on cells; also called cynoCD19; cell surface antigen CD19 on cynomolgus monkey B cells
T7 sequence: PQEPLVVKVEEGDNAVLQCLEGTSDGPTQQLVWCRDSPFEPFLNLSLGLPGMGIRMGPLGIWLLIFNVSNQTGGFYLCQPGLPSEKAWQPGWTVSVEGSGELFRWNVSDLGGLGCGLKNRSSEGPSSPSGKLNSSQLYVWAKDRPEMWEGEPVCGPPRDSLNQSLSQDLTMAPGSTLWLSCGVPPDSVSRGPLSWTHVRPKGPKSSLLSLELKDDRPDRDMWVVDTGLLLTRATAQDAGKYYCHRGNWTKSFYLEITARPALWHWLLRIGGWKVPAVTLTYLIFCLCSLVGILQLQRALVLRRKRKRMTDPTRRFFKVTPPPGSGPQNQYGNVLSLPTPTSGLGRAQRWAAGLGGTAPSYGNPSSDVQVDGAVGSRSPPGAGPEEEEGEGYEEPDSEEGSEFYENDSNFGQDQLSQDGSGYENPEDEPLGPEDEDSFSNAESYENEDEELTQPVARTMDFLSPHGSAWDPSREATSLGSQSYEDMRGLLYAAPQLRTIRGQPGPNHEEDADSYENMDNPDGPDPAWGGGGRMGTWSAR
Protocol: as §2, §3, §4

[8] = biological target: T5, human CD19 on cells (human B …); assay: flow cytometry, binding rate on B cells in human PBMC, detection with anti-human Ig κ light chain
Protocol: as §3, §4

B1: CD19×CD3 bispecific antigen binding protein ITAB2009 (bispecific antibody)
chain: EVQLVESGGGLVQPGGSLRLSCAASGFTFNTYAMNWVRQAPGKGLEWVARIRSKYNNYATYYADSVKDRFTISRDDSKNTLYLQMNSLRAEDTAVYYCVRHGNFGNSYVSWFAYWGQGTMVTVSSGGGGSGGGGSGGGGSQAVVTQEPSLTVSPGGTVTLTCRSSTGAVTTSNYANWVQQKPGQAPRGLIGGTNKRAPGTPARFSGSLLGGKAALTLSGVQPEDEAEYYCALWYSNLWVFGGGTKLTVLSGGGGSQVQLVQSGPELIKPGGSVKMSCKASGYTFTSYVMHWVRQKPGQGLEWIGYINPYNDGTKYNEKFKGRATLTSDKSSSTAYMELSSLRSEDSAVYYCARGTYYYGSRVFDYWGQGTTVTVSSASTKGPSVFPLAPSSKSTSGGTAALGCLVKDYFPEPVTVSWNSGALTSGVHTFPAVLQSSGLYSLSSVVTVPSSSLGTQTYICNVNHKPSNTKVDKKVEPKSCPPCS
light: DVVMTQSPSSIPVTLGESVSISCRSSKSLQNVNGNTYLYWFQQRPGQSPQLLIYRMSNLNSGVPDRFSGSGSGTDFTLRISGVEPEDVGVYYCMQHLEYPITFGAGTKLEIKRTVAAPSVFIFPPSDEQLKSGTASVVCLLNNFYPREAKVQWKVDNALQSGNSQESVTEQDSKDSTYSLSSTLTLSKADYEKHKVYACEVTHQGLSSPVTKSFNRGECPPCS
notes: Anti-CD3 scFv joined to the N-terminus of the VH of the anti-CD19 Fab; also called CD19×CD3 BSAP ITAB2009; ITB2009
- Kd [1]: 0.0129 µM
- Kd [2]: 0.0296 µM
- Kd [3]: 0.0182 µM
- EC50 [4]: 115 ng/mL
- EC50 of CD19×CD3 BSAP mediated human PBMC cytotoxicity against tumor cells (Daudi) [5]: 0.06 ng/mL
- EC50 of CD19×CD3 BSAP mediated human PBMC cytotoxicity against tumor cells (Raji) [5]: 0.04 ng/mL
- EC50 of CD19×CD3 BSAP mediated human PBMC cytotoxicity against tumor cells (Reh) [5]: 0.24 ng/mL
- EC50 [6]: 204 ng/mL
- EC50 [7]: 1900 ng/mL
- EC50 [8]: 35 ng/mL

From patent publication US20210301018A1 (ITABMED HK, published 2021)
